Assay results: US20220323445A1, “REDUCING IMMUNOGENICITY TO PEGLOTICASE” (Horizon Therapeutics Ireland DAC, priority 2020, published 2022)

Tested on: serum uric acid (sUA)
Assay: Serum uric acid (sUA) levels and sUA responders, open-label study of pegloticase with MTX (NCT03635957)
Type: in vivo, human
Description: The primary objective is to estimate the response rate during Month 6 (Weeks 20, 22, and 24), as measured by the sustained normalization of serum uric acid (SUA) to <6 mg/dL for at least 80% of the time during Month 6 in subjects receiving KXX with MTX.
The primary efficacy outcome endpoint is the sustained normalization of SUA to <6 mg/dL for at least 80% of the time during month 6 (weeks 20, 22, and 24) in subjects receiving KXX with MTX. This is slightly below the urate solubility threshold and this threshold has been the accepted standard for nearly all modern gout trials. Participants who achieve this endpoint were classified as “responders.” Serum uric acid (SUA) responders may also be defined as participants achieving and maintaining SUA <6 mg/dL for at least 80% of the time during Month 6 (Weeks 20, 22, and 24).
Blood samples may be collected prior to each pegloticase infusion for measurement of SUA levels using the Beckman Coulter AU System Uric Acid procedure. Participants were declared “non-responders” if there were SUA measures >6 mg/dL at 2 consecutive study visits beginning with the week 2 visit. […] If the SUA goal is not maintained before or at the 12-week mark, it was assumed that the participant had developed clinically relevant anti-pegloticase antibody and they received no further infusions. This assumption and subsequent discontinuation of pegloticase was consistent with the protocol of large phase III randomized controlled trials and the product label. A formal stopping rule was 2 occasions of SUA levels of greater than 6 mg/dL.
Clinical Chemistry—Blood samples were collected prior to each pegloticase infusion for measurement of SUA levels (primary efficacy parameter) using the Beckman Coulter AU System Uric Acid procedure. In this procedure uric acid is converted to hydrogen peroxide. Hydrogen peroxide reacts with reagent to produce a chromophore which is read bichromatically at 660/800 nm. The amount of dye formed is proportional to the uric acid concentration in the sample.
Serum samples for measurement of SUA levels were collected at the Screening Visit, the Week −4 Visit (prior to the first dose of MTX), and the Week −2 Visit during the MTX Run-in Period; within 48 hours prior to each pegloticase infusion and after the end of each pegloticase infusion prior to discharge from the site during the Pegloticase+IMM Period; at the non-infusion Week 52/End of Study/Early Termination Visits and at the Post Treatment 3 and 6 Month Follow-up Visits. Additional serum samples for SUA levels were collected at optional non-infusion (Frequent Sampling) Visits at Weeks 1 and 7. […] Subjects with SUA level >6 mg/dL at 2 consecutive visits beginning at Week 2 visit discontinued treatment, completed the End of Pegloticase Infusion Visit procedures within 2 weeks and continued the subject visits according to the protocol (without treatment).
Efficacy analyses were performed using the modified intention-to-treat (mITT) population, defined as all enrolled subjects who received ≥1 dose of pegloticase. The proportion of Month 6 responders was summarized, along with a 95% confidence interval for the proportion. The proportion of Month 3 and overall (Months 3 and 6 combined) responders was analyzed similarly.
A subject was declared a non-responder if the subject had SUA level >6 mg/dL at 2 consecutive study visits beginning with the Week 2 Visit. In addition, a subject who withdraws from study treatment for any reason after the first dose of pegloticase in the KXX+MTX Period and prior to Month 6 (for the primary endpoint) or Month 3 (for the secondary endpoint) was considered a non-responder if SUA values were not collected at the planned time points.
Patients were administered oral MTX (15 mg/week) and folate (1 mg/day) 4 weeks prior to the first pegloticase infusion (Day 1) and throughout the pegloticase treatment period. […]

[1] = Week 12 - Post-Infusion, mITT, n=10
[2] = Week 12 - Pre-Infusion, Month 6 sUA Responders
[3] = Week 12 - Pre-Infusion, mITT, n=11
[4] = Week 14 - Post-Infusion, Month 6 sUA Responders
[5] = Week 14 - Post-Infusion, mITT, n=10
[6] = Week 14 - Pre-Infusion, Month 6 sUA Responders
[7] = Week 14 - Pre-Infusion, mITT, n=11
[8] = Week 16 - Post-Infusion, Month 6 sUA Responders
[9] = Week 16 - Post-Infusion, mITT, n=11
[10] = Week 16 - Pre-Infusion, Month 6 sUA Responders
[11] = Week 16 - Pre-Infusion, mITT, n=11
[12] = Week 18 - Post-Infusion, Month 6 sUA Responders
[13] = Week 18 - Post-Infusion, mITT, n=11

B1: pegloticase (protein)
chain: TYKKNDEVEFVRTGYGKDMIKVLHIQRDGKYHSIKEVATTVQLTLSSKKDYLHGDNSDVIPTDTIKNTVNVLAKFKGIKSIETFAVTICEHFLSSFKHVIRAQVYVEEVPWKRFEKNGVKHVHAFIYTPTGTHFCEVEQIRNGPPVIHSGIKDLKVLKTTQSGFEGFIKDQFTTLPEVKDRCFATQVYCKWRYHQGRDVDFEATWDTVRSIVLQKFAGPYDKGEYSPSVQKTLYDIQVLTLGQVPEIEDMEISLPNIHYLNIDMSKMGLINKEEVLLPLDNPYGKITGTVKRKLSSRL
modifications: monomethoxy PEG conjugated; Krystexxa Sequence
notes: covalent conjugate of uricase produced by a genetically modified strain of Escherichia coli and monomethoxypoly (ethylene glycol)
sUA Change from Baseline, Mean (SD) [1]: −9.13 (2.911) mg/dL
sUA Change from Baseline, Median [1]: -9.05 mg/dL
sUA Observed, Mean (SD) [1]: 0.30 (0.000) mg/dL
sUA Observed, Median [1]: 0.30 mg/dL
sUA < 6 mg/dL, % [2]: (100%)
sUA Change from Baseline, Mean [2]: -8.98 mg/dL
sUA Change from Baseline, Median [2]: -8.80 mg/dL
sUA Observed, Mean [2]: 0.30 mg/dL
sUA Observed, Median [2]: 0.30 mg/dL
sUA < 6 mg/dL, n (%) [3]: 11 (100%)
sUA Change from Baseline, Mean (SD) [3]: −8.98 (2.806) mg/dL
sUA Change from Baseline, Median [3]: -8.80 mg/dL
sUA Observed, Mean (SD) [3]: 0.30 (0.015) mg/dL
sUA Observed, Median [3]: 0.30 mg/dL
sUA < 6 mg/dL, % [4]: (100%)
sUA Change from Baseline, Mean [4]: -9.01 mg/dL
sUA Change from Baseline, Median [4]: -9.05 mg/dL
sUA Observed, Mean [4]: 0.30 mg/dL
sUA Observed, Median [4]: 0.30 mg/dL
sUA < 6 mg/dL, n (%) [5]: 10 (100%)
sUA Change from Baseline, Mean (SD) [5]: −9.01 (2.959) mg/dL
sUA Change from Baseline, Median [5]: -9.05 mg/dL
sUA Observed, Mean (SD) [5]: 0.30 (0.000) mg/dL
sUA Observed, Median [5]: 0.30 mg/dL
sUA < 6 mg/dL, % [6]: (100%)
sUA Change from Baseline, Mean [6]: -8.97 mg/dL
sUA Change from Baseline, Median [6]: -8.80 mg/dL
sUA Observed, Mean [6]: 0.30 mg/dL
sUA Observed, Median [6]: 0.30 mg/dL
sUA < 6 mg/dL, n (%) [7]: 11 (100%)
sUA Change from Baseline, Mean (SD) [7]: −8.97 (2.810) mg/dL
sUA Change from Baseline, Median [7]: -8.80 mg/dL
sUA Observed, Mean (SD) [7]: 0.30 (0.000) mg/dL
sUA Observed, Median [7]: 0.30 mg/dL
sUA < 6 mg/dL, % [8]: (100%)
sUA Change from Baseline, Mean [8]: -8.97 mg/dL
sUA Change from Baseline, Median [8]: -8.80 mg/dL
sUA Observed, Mean [8]: 0.30 mg/dL
sUA Observed, Median [8]: 0.30 mg/dL
sUA < 6 mg/dL, n (%) [9]: 11 (100%)
sUA Change from Baseline, Mean (SD) [9]: −8.97 (2.810) mg/dL
sUA Change from Baseline, Median [9]: -8.80 mg/dL
sUA Observed, Mean (SD) [9]: 0.30 (0.000) mg/dL
sUA Observed, Median [9]: 0.30 mg/dL
sUA < 6 mg/dL, % [10]: (100%)
sUA Change from Baseline, Mean [10]: -8.97 mg/dL
sUA Change from Baseline, Median [10]: -8.80 mg/dL
sUA Observed, Mean [10]: 0.30 mg/dL
sUA Observed, Median [10]: 0.30 mg/dL
sUA < 6 mg/dL, n (%) [11]: 11 (100%)
sUA Change from Baseline, Mean (SD) [11]: −8.97 (2.810) mg/dL
sUA Change from Baseline, Median [11]: -8.80 mg/dL
sUA Observed, Mean (SD) [11]: 0.30 (0.000) mg/dL
sUA Observed, Median [11]: 0.30 mg/dL
sUA < 6 mg/dL, % [12]: (100%)
sUA Change from Baseline, Mean [12]: -8.97 mg/dL
sUA Change from Baseline, Median [12]: -8.80 mg/dL
sUA Observed, Mean [12]: 0.30 mg/dL
sUA Observed, Median [12]: 0.30 mg/dL
sUA < 6 mg/dL, n (%) [13]: 11 (100%)
sUA Change from Baseline, Mean (SD) [13]: −8.97 (2.810) mg/dL
sUA Change from Baseline, Median [13]: -8.80 mg/dL
sUA Observed, Mean (SD) [13]: 0.30 (0.000) mg/dL
sUA Observed, Median [13]: 0.30 mg/dL
sUA < 6 mg/dL, % (Week 18 - Pre-Infusion, Month 6 sUA Responders): (100%)
